Assay results reported in paper PMC2133180.

Target: perlecan purified from Englebreth-Holm-Swarm tumor (UniProt Q05793)
Assay: SPR

Sequence of UniProt Q05793 (Q05793 22-3707): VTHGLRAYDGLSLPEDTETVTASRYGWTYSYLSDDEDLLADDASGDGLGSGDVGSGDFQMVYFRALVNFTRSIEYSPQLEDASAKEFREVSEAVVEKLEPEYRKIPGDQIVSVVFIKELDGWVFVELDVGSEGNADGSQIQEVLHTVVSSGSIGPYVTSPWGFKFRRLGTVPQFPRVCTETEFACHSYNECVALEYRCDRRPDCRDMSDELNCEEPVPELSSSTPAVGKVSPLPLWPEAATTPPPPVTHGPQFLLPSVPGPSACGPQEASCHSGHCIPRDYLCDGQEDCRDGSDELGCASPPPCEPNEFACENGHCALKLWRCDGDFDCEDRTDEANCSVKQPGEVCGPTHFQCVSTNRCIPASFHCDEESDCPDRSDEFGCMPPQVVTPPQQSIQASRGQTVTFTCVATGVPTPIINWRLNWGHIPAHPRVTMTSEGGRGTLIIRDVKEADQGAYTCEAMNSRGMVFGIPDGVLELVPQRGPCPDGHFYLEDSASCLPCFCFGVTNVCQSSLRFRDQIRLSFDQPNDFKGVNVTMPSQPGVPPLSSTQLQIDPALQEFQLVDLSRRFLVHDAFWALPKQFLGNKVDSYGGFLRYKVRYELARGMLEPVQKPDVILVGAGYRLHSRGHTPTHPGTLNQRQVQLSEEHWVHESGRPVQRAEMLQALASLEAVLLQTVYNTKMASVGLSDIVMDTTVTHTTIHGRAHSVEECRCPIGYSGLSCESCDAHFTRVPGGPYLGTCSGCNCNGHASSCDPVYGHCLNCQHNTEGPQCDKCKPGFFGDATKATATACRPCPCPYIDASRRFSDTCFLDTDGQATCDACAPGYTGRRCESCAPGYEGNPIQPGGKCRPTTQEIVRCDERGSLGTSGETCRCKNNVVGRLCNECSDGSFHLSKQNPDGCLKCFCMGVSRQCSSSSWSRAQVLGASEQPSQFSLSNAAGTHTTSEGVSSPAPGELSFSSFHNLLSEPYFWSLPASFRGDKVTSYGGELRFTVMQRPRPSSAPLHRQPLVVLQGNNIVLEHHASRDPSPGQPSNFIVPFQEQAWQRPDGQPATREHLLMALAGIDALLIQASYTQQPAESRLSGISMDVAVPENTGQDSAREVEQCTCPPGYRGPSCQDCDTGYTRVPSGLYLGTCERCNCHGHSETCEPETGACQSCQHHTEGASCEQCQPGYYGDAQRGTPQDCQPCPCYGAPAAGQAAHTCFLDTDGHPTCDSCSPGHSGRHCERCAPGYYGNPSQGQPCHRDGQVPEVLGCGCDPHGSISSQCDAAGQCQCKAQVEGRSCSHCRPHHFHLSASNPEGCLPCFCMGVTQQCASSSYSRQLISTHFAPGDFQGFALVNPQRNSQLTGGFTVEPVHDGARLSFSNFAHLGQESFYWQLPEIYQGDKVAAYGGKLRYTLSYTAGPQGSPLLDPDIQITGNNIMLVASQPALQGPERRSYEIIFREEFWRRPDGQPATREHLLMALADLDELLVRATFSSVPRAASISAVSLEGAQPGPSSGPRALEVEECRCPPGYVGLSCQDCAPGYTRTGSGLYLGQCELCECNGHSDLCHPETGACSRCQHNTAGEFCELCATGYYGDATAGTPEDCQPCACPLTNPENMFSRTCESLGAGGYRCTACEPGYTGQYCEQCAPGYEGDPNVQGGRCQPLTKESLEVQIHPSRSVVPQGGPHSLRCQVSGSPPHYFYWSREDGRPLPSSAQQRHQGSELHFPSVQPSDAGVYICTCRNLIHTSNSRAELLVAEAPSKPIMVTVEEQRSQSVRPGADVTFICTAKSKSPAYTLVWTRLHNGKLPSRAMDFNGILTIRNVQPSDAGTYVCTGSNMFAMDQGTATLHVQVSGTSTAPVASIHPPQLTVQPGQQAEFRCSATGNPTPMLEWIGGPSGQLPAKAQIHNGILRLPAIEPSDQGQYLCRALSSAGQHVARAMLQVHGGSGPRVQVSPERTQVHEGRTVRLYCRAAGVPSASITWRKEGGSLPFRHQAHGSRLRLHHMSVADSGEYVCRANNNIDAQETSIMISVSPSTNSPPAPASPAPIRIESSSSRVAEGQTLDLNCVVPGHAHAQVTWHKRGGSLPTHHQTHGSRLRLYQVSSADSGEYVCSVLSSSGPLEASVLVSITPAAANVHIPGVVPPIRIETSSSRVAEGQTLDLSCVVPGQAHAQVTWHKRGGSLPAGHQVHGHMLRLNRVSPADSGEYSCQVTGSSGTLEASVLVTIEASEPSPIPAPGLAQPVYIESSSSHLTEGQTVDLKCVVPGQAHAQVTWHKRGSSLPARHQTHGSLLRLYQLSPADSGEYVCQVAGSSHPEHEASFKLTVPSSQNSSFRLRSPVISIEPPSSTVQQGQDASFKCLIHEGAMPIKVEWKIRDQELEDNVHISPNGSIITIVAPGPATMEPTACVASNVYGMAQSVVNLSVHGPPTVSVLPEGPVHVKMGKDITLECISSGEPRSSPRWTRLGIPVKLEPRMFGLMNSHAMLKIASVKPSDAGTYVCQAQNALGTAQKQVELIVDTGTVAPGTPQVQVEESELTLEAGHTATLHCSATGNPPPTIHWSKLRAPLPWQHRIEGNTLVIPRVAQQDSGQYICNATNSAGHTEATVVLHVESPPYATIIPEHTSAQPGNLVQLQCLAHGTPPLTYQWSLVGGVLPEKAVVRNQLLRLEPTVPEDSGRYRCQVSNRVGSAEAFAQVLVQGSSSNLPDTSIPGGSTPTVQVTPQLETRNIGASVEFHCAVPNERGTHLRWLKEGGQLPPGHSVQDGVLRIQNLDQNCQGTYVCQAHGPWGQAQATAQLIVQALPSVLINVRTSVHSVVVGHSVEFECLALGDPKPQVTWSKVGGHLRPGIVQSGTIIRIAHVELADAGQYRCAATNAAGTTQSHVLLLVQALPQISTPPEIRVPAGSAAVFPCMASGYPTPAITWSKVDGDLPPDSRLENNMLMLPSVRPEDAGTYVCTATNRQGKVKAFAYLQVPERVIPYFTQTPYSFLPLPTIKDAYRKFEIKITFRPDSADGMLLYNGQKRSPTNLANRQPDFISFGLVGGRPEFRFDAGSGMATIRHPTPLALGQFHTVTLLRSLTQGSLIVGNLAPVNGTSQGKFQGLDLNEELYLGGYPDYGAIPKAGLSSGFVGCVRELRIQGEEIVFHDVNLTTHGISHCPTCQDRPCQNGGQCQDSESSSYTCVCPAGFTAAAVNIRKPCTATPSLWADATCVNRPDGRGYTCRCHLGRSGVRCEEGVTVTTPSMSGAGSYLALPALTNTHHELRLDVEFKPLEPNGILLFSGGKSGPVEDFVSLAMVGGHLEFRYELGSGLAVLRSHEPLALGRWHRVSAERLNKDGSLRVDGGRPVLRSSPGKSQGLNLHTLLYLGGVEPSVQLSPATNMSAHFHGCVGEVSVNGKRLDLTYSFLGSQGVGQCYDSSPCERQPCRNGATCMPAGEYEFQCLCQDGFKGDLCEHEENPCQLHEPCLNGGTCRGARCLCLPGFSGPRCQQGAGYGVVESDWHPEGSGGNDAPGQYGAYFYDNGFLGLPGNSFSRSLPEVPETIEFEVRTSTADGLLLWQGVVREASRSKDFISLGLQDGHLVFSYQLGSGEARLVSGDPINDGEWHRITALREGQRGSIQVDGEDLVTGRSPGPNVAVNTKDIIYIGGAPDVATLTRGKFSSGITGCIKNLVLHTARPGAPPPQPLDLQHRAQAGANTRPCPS

quail A12 collagenic-tailed acetylcholinesterase (asymmetric form) (complex)
fold change in RU over the G2/G4 value: 270 fold
